Data: patent publication US20240352128A1 (NANJING GENSCRIPT BIOTECH, published 2024)
Residue numbers refer to the chain shown, from its start.

B1: pTT5-AR8820-1.1mIgG1Fc (Fc fusion)
heavy: QVQLVESGGGVVQPGGSLRLSCAASGSSISRYAMAWYRQAPGKGRELVAVVRITGSPIYADFVGGRFTISRDNSKNTLYLQMNSLRAEDTAVYYCATGNFNTYTRRYSPSETWGKGTTVTVSSVPRDCGCKPCICTVPEVSSVFIFPPKPKDVLTITLTPKVTCVVVDISKDDPEVQFSWFVDDVEVHTAQTQPREEQFNSTFRSVSELPIMHQDWLNGKEFKCRVNSAAFPAPIEKTISKTKGRPKAPQVYTIPPPKEQMAKDKVSLTCMITDFFPEDITVEWQWNGQPAENYKNTQPIMDTDGSYFVYSKLNVQKSNWEAGNTFTCSVLHEGLHNHHTEKSLSHSPGK
notes: As m24
B2: pTT5-AR8804-3.2 mIgG1Fc (Fc fusion)
heavy: B1 heavy with I29V, L47W, S56I, G64K
notes: As m24
B3: pTT5-AR8804-3.3mIgG1Fc (Fc fusion)
heavy: B1 heavy with I29V, S56I, G64K, A96N
notes: As m24
B4: pTT5-AR8820-1.2mIgG1Fc (Fc fusion)
heavy: B1 heavy with L47W
notes: As m24
B5: pTT5-AR8820-1.3mIgG1Fc (Fc fusion)
heavy: B1 heavy with A96N
notes: As m24
B6: pTT5-AR8820-2.1mIgG1Fc (Fc fusion)
VHH-Fc: B1 heavy with Q1E, V11L, V12I, A49S, K115Q
notes: As m24
B7: pTT5-AR8820-2.3mIgG1Fc (Fc fusion)
VHH-Fc: B1 heavy with Q1E, V11L, V12I, A49S, A96N, T97R, K115Q
notes: As m24
B8: pTT5-AR8820-3.1 mIgG1Fc (Fc fusion)
heavy: B1 heavy with Q1E, V11L, S74A, T77S, K115Q, T118L
notes: As m24
B9: pTT5-AR8820-3.3 mIgG1Fc (Fc fusion)
VHH-Fc: B1 heavy with Q1E, V11L, S74A, T77S, A96N, K115Q, T118L
notes: As m24

molecular target: T1, cynomolgus monkey CD16a on HEK293 cells expressing cyno monkey CD16a (constructed by Genscript) (cynomolgus monkey, UniProt Q8SPW2 17-254); assay: flow cytometry on HEK293 cells expressing cyno monkey CD16a
T1 construct: whole, on cells; also called cynomolgus monkey CD16a protein
Experimental: To determine the cross-reactions of antibody products, HEK293 cells expressing cyno monkey CD16a (constructed by Genscript) were harvested and incubated respectively with serially diluted anti-CD16a humanized sdAb-mIgG1Fcs (max. concentration: 100 nM, 3-fold dilution), followed by fluorophore (iFluor 647)-labeled goat anti mouse IgG (H+L) secondary antibodies (Jackson immuno research; catalog #: 115-605-062). The samples were then analyzed with flow cytometry. Raw data was plotted with GraphPad Prism v6.02 software with four parameters, best-fit values program to analyze the EC₅₀. The molecules of pTT5-AR8804-3.2 mIgG1Fc, pTT5-AR8804-3.3mIgG1Fc, pTT5-AR8820-1.1mIgG1Fc, pTT5-AR8820-1.2mIgG1Fc, pTT5-AR8820-1.3mIgG1Fc, pTT5-AR8820-2.1mIgG1Fc, pTT5-AR8820-2.3mIgG1Fc, pTT5-AR8820-3.1mIgG1Fc and pTT5-AR8820-3.3 mIgG1Fc manifested good cross-reaction with cynomolgus monkey CD16a protein (FIG. 13).

T1 sequence (Q8SPW2 17-254): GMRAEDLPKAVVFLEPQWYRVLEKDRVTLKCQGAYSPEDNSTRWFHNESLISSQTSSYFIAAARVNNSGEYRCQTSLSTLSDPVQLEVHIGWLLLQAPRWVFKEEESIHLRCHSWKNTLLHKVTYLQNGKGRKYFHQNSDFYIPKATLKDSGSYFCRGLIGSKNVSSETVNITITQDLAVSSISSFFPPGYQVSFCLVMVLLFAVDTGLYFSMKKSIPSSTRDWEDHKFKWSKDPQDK

Binding result, binds:
B1
B2
B3
B4
B5
B6
B7
B8
B9
